Laboratory results as given in patent US20140213513A1 (Sanofi, priority 2012, published 2014).
*1 amine or outer side, *2 acyl side, *3 side chain or, on linkers, in order; H or OH if unused. Where no end group is shown, it is not given here. Side-chain parts run from the residue outwards. [ ]: non-standard residue; d: D form. The star is where a group is joined. γGlu = O=C(O)[C@H](CCC(=O)[*:2])N[*:1]; Palmitoyl = CCCCCCCCCCCCCCCC(=O)*; Aib = CC(C)(N)C(=O)O

B1: exendin-4 peptide analogue SEQ ID NO: 47 (peptide)
peptide: Y[Aib]QGTFTSDLSIQK([γGlu-Palmitoyl])DKRAVQLFIEWLKNGGPSSGAPPPS-NH2
modifications: N-terminus assumed
SMILES: CCCCCCCCCCCCCCCC(=O)N[C@@H](CCC(=O)NCCCC[C@H](NC(=O)[C@H](CCC(N)=O)NC(=O)[C@@H](NC(=O)[C@H](CO)NC(=O)[C@H](CC(C)C)NC(=O)[C@H](CC(=O)O)NC(=O)[C@H](CO)NC(=O)[C@@H](NC(=O)[C@H](Cc1ccccc1)NC(=O)[C@@H](NC(=O)CNC(=O)[C@H](CCC(N)=O)NC(=O)C(C)(C)NC(=O)[C@@H](N)Cc1ccc(O)cc1)[C@@H](C)O)[C@@H](C)O)[C@@H](C)CC)C(=O)N[C@@H](CC(=O)O)C(=O)N[C@@H](CCCCN)C(=O)N[C@@H](CCCNC(=N)N)C(=O)N[C@@H](C)C(=O)N[C@H](C(=O)N[C@@H](CCC(N)=O)C(=O)N[C@@H](CC(C)C)C(=O)N[C@@H](Cc1ccccc1)C(=O)N[C@H](C(=O)N[C@@H](CCC(=O)O)C(=O)N[C@@H](Cc1c[nH]c2ccccc12)C(=O)N[C@@H](CC(C)C)C(=O)N[C@@H](CCCCN)C(=O)N[C@@H](CC(N)=O)C(=O)NCC(=O)NCC(=O)N1CCC[C@H]1C(=O)N[C@@H](CO)C(=O)N[C@@H](CO)C(=O)NCC(=O)N[C@@H](C)C(=O)N1CCC[C@H]1C(=O)N1CCC[C@H]1C(=O)N1CCC[C@H]1C(=O)N[C@@H](CO)C(N)=O)[C@@H](C)CC)C(C)C)C(=O)O
B2: exendin-4 peptide analogue SEQ ID NO: 48 (peptide)
peptide: Y[Aib]QGTFTSDLSIQK([γGlu-Palmitoyl])DSEAAQDFIEWLKAGGPSSGAPPPS-NH2
modifications: N-terminus assumed
SMILES: CCCCCCCCCCCCCCCC(=O)N[C@@H](CCC(=O)NCCCC[C@H](NC(=O)[C@H](CCC(N)=O)NC(=O)[C@@H](NC(=O)[C@H](CO)NC(=O)[C@H](CC(C)C)NC(=O)[C@H](CC(=O)O)NC(=O)[C@H](CO)NC(=O)[C@@H](NC(=O)[C@H](Cc1ccccc1)NC(=O)[C@@H](NC(=O)CNC(=O)[C@H](CCC(N)=O)NC(=O)C(C)(C)NC(=O)[C@@H](N)Cc1ccc(O)cc1)[C@@H](C)O)[C@@H](C)O)[C@@H](C)CC)C(=O)N[C@@H](CC(=O)O)C(=O)N[C@@H](CO)C(=O)N[C@@H](CCC(=O)O)C(=O)N[C@@H](C)C(=O)N[C@@H](C)C(=O)N[C@@H](CCC(N)=O)C(=O)N[C@@H](CC(=O)O)C(=O)N[C@@H](Cc1ccccc1)C(=O)N[C@H](C(=O)N[C@@H](CCC(=O)O)C(=O)N[C@@H](Cc1c[nH]c2ccccc12)C(=O)N[C@@H](CC(C)C)C(=O)N[C@@H](CCCCN)C(=O)N[C@@H](C)C(=O)NCC(=O)NCC(=O)N1CCC[C@H]1C(=O)N[C@@H](CO)C(=O)N[C@@H](CO)C(=O)NCC(=O)N[C@@H](C)C(=O)N1CCC[C@H]1C(=O)N1CCC[C@H]1C(=O)N1CCC[C@H]1C(=O)N[C@@H](CO)C(N)=O)[C@@H](C)CC)C(=O)O

Tests used:
Assay in all cases: cell-based or functional assay
human GLP-1 receptor = human GLP-1 receptor (human, UniProt P43220 24-463)
human GIP receptor = molecular target: T1, human GIP receptor (human, UniProt P48546 22-466)
T1 sequence (looked up): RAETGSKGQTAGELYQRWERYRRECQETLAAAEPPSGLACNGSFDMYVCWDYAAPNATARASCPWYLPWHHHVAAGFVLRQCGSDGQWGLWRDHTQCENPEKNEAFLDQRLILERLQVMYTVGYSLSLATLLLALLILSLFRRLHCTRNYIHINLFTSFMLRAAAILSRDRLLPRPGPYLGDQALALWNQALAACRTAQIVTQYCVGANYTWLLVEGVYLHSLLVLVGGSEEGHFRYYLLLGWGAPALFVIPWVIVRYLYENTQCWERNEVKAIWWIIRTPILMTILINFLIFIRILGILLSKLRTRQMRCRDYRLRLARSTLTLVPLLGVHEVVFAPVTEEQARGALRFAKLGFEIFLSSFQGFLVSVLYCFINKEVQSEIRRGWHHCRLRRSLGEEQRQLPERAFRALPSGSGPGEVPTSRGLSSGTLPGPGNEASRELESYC

human glucagon receptor = human glucagon receptor (human, UniProt P47871 26-477)
Sequence of human glucagon receptor (P47871 26-477): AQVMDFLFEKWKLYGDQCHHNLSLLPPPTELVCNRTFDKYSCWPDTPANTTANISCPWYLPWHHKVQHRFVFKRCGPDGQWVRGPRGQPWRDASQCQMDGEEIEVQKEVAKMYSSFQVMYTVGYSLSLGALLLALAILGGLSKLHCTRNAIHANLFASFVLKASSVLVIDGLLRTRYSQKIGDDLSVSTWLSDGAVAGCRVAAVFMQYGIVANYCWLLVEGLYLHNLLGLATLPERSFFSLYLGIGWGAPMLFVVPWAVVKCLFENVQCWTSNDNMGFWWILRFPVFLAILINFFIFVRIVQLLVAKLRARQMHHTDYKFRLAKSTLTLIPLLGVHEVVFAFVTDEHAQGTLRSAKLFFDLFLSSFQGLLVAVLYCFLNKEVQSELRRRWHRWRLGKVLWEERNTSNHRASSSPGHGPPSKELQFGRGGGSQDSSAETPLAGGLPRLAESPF

Binder | EC50 hGLP-1 R (human GLP-1 receptor) | EC50 hGIP R (human GIP receptor) | EC50 hGLUC R (human glucagon receptor)
B1 | 15.6 pM | 44.2 pM | 2390 pM
B2 | 10.1 pM | 15.8 pM | 478 pM
